Assay results published in patent US20190202883A1 (Takeda / Millennium, published 2019).
Blank lines part the entries; values can stand above or below the binder they belong to. Square brackets hold non-standard residues; d marks the D form. Side chains are listed from the residue outwards. αMeF = C[C@](N)(Cc1ccccc1)C(=O)O; Iva = CC[C@](C)(N)C(=O)O; Oda = not defined here; Aib = CC(C)(N)C(=O)O

Columns and labels:
Assay in all cases: cell-based or functional assay
human GIPR = target: T1, human GIPR (human, UniProt P48546 22-466)
T1 sequence (looked up): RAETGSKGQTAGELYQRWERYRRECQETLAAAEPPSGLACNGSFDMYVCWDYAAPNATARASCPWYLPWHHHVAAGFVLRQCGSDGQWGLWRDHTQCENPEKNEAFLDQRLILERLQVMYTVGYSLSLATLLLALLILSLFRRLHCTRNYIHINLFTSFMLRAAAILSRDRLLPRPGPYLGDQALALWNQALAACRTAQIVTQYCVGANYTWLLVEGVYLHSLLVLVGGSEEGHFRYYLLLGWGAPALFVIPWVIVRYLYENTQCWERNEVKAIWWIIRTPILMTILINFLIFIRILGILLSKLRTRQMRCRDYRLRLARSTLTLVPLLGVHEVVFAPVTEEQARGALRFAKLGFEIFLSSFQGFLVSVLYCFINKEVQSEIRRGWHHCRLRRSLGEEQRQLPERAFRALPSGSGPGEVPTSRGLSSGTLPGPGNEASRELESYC

human NPY2R = target: T2, human NPY2R (human, UniProt P49146 1-381)
T2 sequence (looked up): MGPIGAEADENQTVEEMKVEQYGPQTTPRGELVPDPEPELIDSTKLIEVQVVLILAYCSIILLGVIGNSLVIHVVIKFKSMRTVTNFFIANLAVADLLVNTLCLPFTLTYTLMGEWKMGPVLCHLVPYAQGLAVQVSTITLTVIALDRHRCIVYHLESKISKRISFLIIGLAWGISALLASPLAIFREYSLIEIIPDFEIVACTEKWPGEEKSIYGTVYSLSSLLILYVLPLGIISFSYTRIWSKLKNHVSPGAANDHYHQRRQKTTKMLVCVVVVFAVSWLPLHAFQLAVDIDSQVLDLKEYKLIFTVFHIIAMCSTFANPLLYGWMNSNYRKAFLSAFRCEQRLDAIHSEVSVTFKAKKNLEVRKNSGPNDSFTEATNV

human GLP-1R = human GLP-1R (human, UniProt P43220 24-463)

Agonist activity (EC50), Cre-luc reporter assay (human GIPR): 0.082 nM | Agonist activity (EC50), Cre-luc reporter assay (human NPY2R): 0.067 nM | Agonist activity (EC50), Cre-luc reporter assay (human GLP-1R): 0.13 nM
Binder: Me-Y[Aib]EGT[αMeF]TSDK([Gly-Gly-Gly-Gly-Pal])[Aib]I[Aib]LEKQRQ[Iva]EFVRHLLNK[Aib]TRQRY-NH2

Agonist activity (EC50), Cre-luc reporter assay (human GIPR): 0.049 nM | Agonist activity (EC50), Cre-luc reporter assay (human NPY2R): 0.057 nM | Agonist activity (EC50), Cre-luc reporter assay (human GLP-1R): 0.061 nM
Binder: H-Y[Aib]EGT[αMeF]TSDK([Gly-Gly-Gly-Gly-Pal])[Aib]I[Aib]LEKQRQ[Iva]EFVRHLLNK[Aib]TRQRY-NH2

Agonist activity (EC50), Cre-luc reporter assay (human GIPR): 0.038 nM | Agonist activity (EC50), Cre-luc reporter assay (human NPY2R): 0.03 nM | Agonist activity (EC50), Cre-luc reporter assay (human GLP-1R): 0.043 nM
Binder: Me-Y[Aib]EGT[αMeF]TSDK([Gly-Gly-Gly-Gly-Pal])[Aib]I[Aib]LDKQAQ[Iva]EFVRHLLNK[Aib]TRQRY-NH2

Agonist activity (EC50), Cre-luc reporter assay (human GIPR): 0.52 nM | Agonist activity (EC50), Cre-luc reporter assay (human NPY2R): 2.7 nM | Agonist activity (EC50), Cre-luc reporter assay (human GLP-1R): 0.25 nM
B1: H-Tyr-Aib-Glu-Gly-Thr-αMePhe-Thr-Ser-Asp-Lys(-Gly-Gly-Gly-Gly-Oda)-Aib-Ile-Aib-Leu-Glu-Lys-Gln-Arg-Gln-Iva-Glu-Phe-Val-Arg-His-Leu-Leu-Asn-Lys-Aib-Thr-Arg-Gln-A … (peptide)
peptide: H-Y[Aib]EGT[αMeF]TSDK([Gly-Gly-Gly-Gly-Oda])[Aib]I[Aib]LEKQRQ[Iva]EFVRHLLNK[Aib]TRQRY-NH2
modifications: reading uncertain; also: printed as H-Tyr-Aib-Glu-Gly-Thr-αMePhe-Thr-Ser-Asp-Lys(-Gly-Gly-Gly-Gly-Oda)-Aib-Ile-Aib-Leu-Glu-Lys-Gln-Arg-Gln-Iva-Glu-Phe-Val-Arg-His-Leu-Leu-Asn-Lys-Aib-Thr-Arg-Gln-Arg-Tyr-NH2

Agonist activity (EC50), Cre-luc reporter assay (human GIPR): 0.074 nM | Agonist activity (EC50), Cre-luc reporter assay (human NPY2R): 2.4 nM | Agonist activity (EC50), Cre-luc reporter assay (human GLP-1R): 0.078 nM
B2: H-Tyr-Aib-Glu-Gly-Thr-αMePhe-Thr-Ser-Asp-Lys(-Gly-Gly-Gly-Gly-Oda)-Aib-Ile-Aib-Leu-Asp-Lys-Gln-Ala-Gln-Iva-Glu-Phe-Val-Arg-His-Leu-Leu-Asn-Lys-Aib-Thr-Arg-Gln-A … (peptide)
peptide: H-Y[Aib]EGT[αMeF]TSDK([Gly-Gly-Gly-Gly-Oda])[Aib]I[Aib]LDKQAQ[Iva]EFVRHLLNK[Aib]TRQRY-NH2
modifications: reading uncertain; also: printed as H-Tyr-Aib-Glu-Gly-Thr-αMePhe-Thr-Ser-Asp-Lys(-Gly-Gly-Gly-Gly-Oda)-Aib-Ile-Aib-Leu-Asp-Lys-Gln-Ala-Gln-Iva-Glu-Phe-Val-Arg-His-Leu-Leu-Asn-Lys-Aib-Thr-Arg-Gln-Arg-Tyr-NH2

Agonist activity (EC50), Cre-luc reporter assay (human GIPR): 0.074 nM | Agonist activity (EC50), Cre-luc reporter assay (human NPY2R): 3.3 nM | Agonist activity (EC50), Cre-luc reporter assay (human GLP-1R): 0.15 nM
B3: Me-Tyr-Aib-Glu-Gly-Thr-αMePhe-Thr-Ser-Asp-Lys(-Gly-Gly-Gly-Gly-Oda)-Aib-Ile-Aib-Leu-Asp-Lys-Gln-Ala-Gln-Iva-Glu-Phe-Val-Arg-His-Leu-Leu-Asn-Lys-Aib-Thr-Arg-Gln- … (peptide)
peptide: Me-Y[Aib]EGT[αMeF]TSDK([Gly-Gly-Gly-Gly-Oda])[Aib]I[Aib]LDKQAQ[Iva]EFVRHLLNK[Aib]TRQRY-NH2
modifications: reading uncertain; also: printed as Me-Tyr-Aib-Glu-Gly-Thr-αMePhe-Thr-Ser-Asp-Lys(-Gly-Gly-Gly-Gly-Oda)-Aib-Ile-Aib-Leu-Asp-Lys-Gln-Ala-Gln-Iva-Glu-Phe-Val-Arg-His-Leu-Leu-Asn-Lys-Aib-Thr-Arg-Gln-Arg-Tyr-NH2
